Source: paper PMC5062073, “Cellular uptake of a cystine-knot peptide and modulation of its intracellular trafficking” (Scientific Reports, 2016)

What was measured:
trypsin [1] = molecular target: trypsin (UniProt P00760); experiment: enzyme inhibition assay (trypsin proteolytic activity on a fluorogenic substrate); apparent; trypsin 2.3 pM, tosyl-GPR-AMC substrate 5 uM, activity measured for 2 h after pre-incubation of the peptides with protease for 1 h at room temperature
[2] = SGF with pepsin, pH 1.2, 37 °C, peptide 0.3 mg/ml, after several days; LC/MS, A214nm peak area vs internal standard
Method: Peptides were incubated at a concentration of 0.3 mg/ml in simulated gastric fluid at 37 °C for the indicated times. To prepare simulated gastric fluid, 2 g of sodium chloride, 43 mg of sodium thaurocholate, 16 mg of lecithin and 100 mg of pepsin were dissolved in 1 L of Milli-Q water (18.2 MΩ.cm^−1) and adjusted to pH 1.2 with 37% hydrochloric acid. At the indicated time points, 10 μl (3 μg) aliquots were removed from the reaction, quenched with 0.25 M NaOH and then mixed with 2.6 μg of the internal standard. Samples were immediately analyzed by analytical LC/MS (Agilent 1200 series) and the area under the A214nm peak was quantified.

trypsin [3] = molecular target: T1, trypsin (Bos taurus, UniProt P00760); experiment: Trypsin enzymatic assay; assay type: biochemical
T1 construct: gene PRSS1
T1 sequence (P00760 24-246): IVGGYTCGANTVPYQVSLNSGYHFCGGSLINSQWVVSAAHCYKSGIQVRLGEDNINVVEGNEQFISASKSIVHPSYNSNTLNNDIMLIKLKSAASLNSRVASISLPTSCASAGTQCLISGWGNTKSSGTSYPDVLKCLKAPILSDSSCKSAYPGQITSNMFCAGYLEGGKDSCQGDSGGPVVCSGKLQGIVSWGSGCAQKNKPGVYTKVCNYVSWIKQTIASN
Method: Assays were done as described earlier with slight modification. Briefly, normalized proteolytic activity of trypsin (2.3 pM) toward tosyl-GPR-AMC substrate (5 μM) was measured for 2 h after pre-incubation of the peptides with protease for 1 h at room temperature. The data were plotted and fitted using KaleidaGraph v3.6 software. Apparent […] (Ki^app) was determined from at least three independent measurements.

| Molecule | Ki (trypsin [1]) | remaining in simulated gastric fluid [2] | Ki (trypsin [3]) |
| --- | --- | --- | --- |
| recombinant EETI-II (Ecballium elaterium trypsin inhibitor II) (peptide) | 0.16 nM |  |  |
| CC[C@H](C)[C@@H]1NC(=O)[C@H](CCCNC(=N)N)NC(=O)[C@@H]2CCCN2C(=O)[C@@H](NC(=O)CNC(=O)[C@H](CO)NC(=O)CN)CSSC[C@@H]2NC(=O)CNC(=O)[C@H](C)NC(=O)[C@H](CC(C)C)NC(=O)[C@@H]3CSSC[C@@H](C(=O)NCC(=O)NCC(=O)N[C@@H](CC(N)=O)C(=O)N[C@@H](CO)C(=O)O)NC(=O)[C@H](Cc4ccccc4)NC(=O)CNC(=O)[C@H](CC(N)=O)NC(=O)[C@@H]4CCCN4C(=O)CNC(=O)[C@H](CSSC[C@H](NC(=O)[C@H](CCCNC(=N)N)NC(=O)[C@H](CCSC)NC(=O)[C@H](CC(C)C)NC1=O)C(=O)N[C@@H](CCCCN)C(=O)N[C@@H](CCC(N)=O)C(=O)N[C@@H](CC(=O)O)C(=O)N[C@@H](CO)C(=O)N[C@@H](CC(=O)O)C(=O)N3)NC(=O)[C@H](C(C)C)NC2=O [rEETI-II] |  | 50% | 0.16 ± 0.01 nM |
| Alexa488-labeled recombinant EETI-II (peptide) | 0.71 nM |  |  |
